Experimental data from patent US6905854B2, “Mutated penicillin expandase and process for preparing 7-ADCA using the same” (Synmax Biochemical Co., Ltd., priority 2002, dated 2005).
Changes are numbered by the printed parent chain. In names and notes the source's numbering stands.

B1: YS49: mutated penicillin expandase (DAOCS) with substitution L277K (protein, UniProt P18548 1-311, looked up, variant L277K)
Deacetoxycephalosporin C …: MDTTVPTFSLAELQQGLHQDEFRRCLRDKGLFYLTDCGLTDTELKSAKDLVIDFFEHGSEAEKRAVTSPVPTMRRGFTGLESESTAQITNTGSYSDYSMCYSMGTADNLFPSGDFERIWTQYFDRQYTASRAVAREVLRATGTEPDGGVEAFLDCEPLLRFRYFPQVPEHRSAEEQPLRMAPHYDLSMVTLIQQTPCANGFVSLQAEVGGAFTDLPYRPDAVLVFCGAIATLVTGGQVKAPRHHVAAPRRDQIAGSSRTSSVFFLRPNADFTFSVPKARECGFDVSLDGETATFQDWIGGNYVNIRRTSKA
B2: YS16: wild-type expandase (DAOCS, cefE gene) from Streptomyces clavuligerus, parent strain (protein, UniProt P18548 1-311, looked up)
Deacetoxycephalosporin C …: B1 Deacetoxycephalosporin C … with K277L
B3: EC12: mutated penicillin expandase (DAOCS) with substitution L277Q (protein, UniProt P18548 1-311, looked up, variant L277Q)
Deacetoxycephalosporin C …: B1 Deacetoxycephalosporin C … with K277Q
B4: YS72: mutated penicillin expandase (DAOCS) with substitution C155Y (protein, UniProt P18548 1-311, looked up, variant C155Y)
Deacetoxycephalosporin C …: B1 Deacetoxycephalosporin C … with C155Y, K277L
B5: YS103: mutated penicillin expandase (DAOCS) with substitution M188V (protein, UniProt P18548 1-311, looked up, variant M188V)
Deacetoxycephalosporin C …: B1 Deacetoxycephalosporin C … with M188V, K277L
B6: YH2: mutated penicillin expandase (DAOCS) with substitution H244R (protein, UniProt P18548 1-311, looked up, variant H244R)
Deacetoxycephalosporin C …: B1 Deacetoxycephalosporin C … with H244R, K277L
B7: SC59: DNA-shuffled combined DAOCS mutant with C155Y, Y184H, V275I and C281Y (protein, UniProt P18548 1-311, looked up, variant C155Y Y184H V275I C281Y)
Deacetoxycephalosporin C …: B1 Deacetoxycephalosporin C … with C155Y, Y184H, V275I, K277L, C281Y
B8: YS8: mutated penicillin expandase (DAOCS) with substitution I305L (protein, UniProt P18548 1-311, looked up, variant I305L)
Deacetoxycephalosporin C …: B1 Deacetoxycephalosporin C … with K277L, I305L
B9: YS69: mutated penicillin expandase (DAOCS) with substitution M188I (protein, UniProt P18548 1-311, looked up, variant M188I)
Deacetoxycephalosporin C …: B1 Deacetoxycephalosporin C … with M188I, K277L
B10: YS67: mutated penicillin expandase (DAOCS) with substitutions V275I and I305M (protein, UniProt P18548 1-311, looked up, variant V275I I305M)
Deacetoxycephalosporin C …: B1 Deacetoxycephalosporin C … with V275I, K277L, I305M
B11: YS123: mutated penicillin expandase (DAOCS) with substitution H244Q (protein, UniProt P18548 1-311, looked up, variant H244Q)
Deacetoxycephalosporin C …: B1 Deacetoxycephalosporin C … with H244Q, K277L
B12: YS110: mutated penicillin expandase (DAOCS) with substitution Y184H (protein, UniProt P18548 1-311, looked up, variant Y184H)
Deacetoxycephalosporin C …: B1 Deacetoxycephalosporin C … with Y184H, K277L
B13: YS71: mutated penicillin expandase (DAOCS) with substitution A106T (protein, UniProt P18548 1-311, looked up, variant A106T)
Deacetoxycephalosporin C …: B1 Deacetoxycephalosporin C … with A106T, K277L
B14: YS87: mutated penicillin expandase (DAOCS) with substitution T91A (protein, UniProt P18548 1-311, looked up, variant T91A)
Deacetoxycephalosporin C …: B1 Deacetoxycephalosporin C … with T91A, K277L
B15: YS74: combined DAOCS mutant, mutated sites 275I, 304K, 305L (protein, UniProt P18548 1-311, looked up, variant V275I N304K I305L)
Deacetoxycephalosporin C …: B1 Deacetoxycephalosporin C … with V275I, K277L, N304K, I305L
B16: YS88: combined DAOCS mutant, mutated sites 79E, 275I, 281Y (protein, UniProt P18548 1-311, looked up, variant G79E V275I C281Y)
Deacetoxycephalosporin C …: B1 Deacetoxycephalosporin C … with G79E, V275I, K277L, C281Y
B17: YS100: combined DAOCS mutant, mutated sites 79E, 275I, 305L (protein, UniProt P18548 1-311, looked up, variant G79E V275I I305L)
Deacetoxycephalosporin C …: B1 Deacetoxycephalosporin C … with G79E, V275I, K277L, I305L
B18: YS81: combined DAOCS mutant, mutated sites 275I, 281Y, 305M (protein, UniProt P18548 1-311, looked up, variant V275I C281Y I305M)
Deacetoxycephalosporin C …: B1 Deacetoxycephalosporin C … with V275I, K277L, C281Y, I305M
B19: SC39: combined DAOCS mutant, mutated sites 73T, 281Y (protein, UniProt P18548 1-311, looked up, variant M73T C281Y)
Deacetoxycephalosporin C …: B1 Deacetoxycephalosporin C … with M73T, K277L, C281Y

Experiment: Kinetic assay of purified DAOCS with penicillin G (standard penicillin G assay, HPLC of cephalosporin G)
Type: biochemical
Settings: for penicillin G; 20 μg purified DAOCS, 1 mM α-ketoglutarate, 30° C.
Protocol: (§1) For penicillin G, 20 μl of cell extracts was added into a standard 200 μl assay reaction containing 50 mM Mops/pH 7.5, 4 mM ascorbate, 1 mM FeSO4, 4 mM α-ketoglutarate and 7 mM penicillin G, and incubated at 30° C. for 20 minutes. The reaction was stopped by addition of 200 μl of ethanol, followed by a centrifugation at 15,000×g for 5 minutes. The concentration of cephalosporin G in supernatant was analyzed by HPLC with 40 μl injection. The mobile phase was 25 mM potassium phosphate/pH 6.5 with 19% acetonitrile at a flow rate of 1 ml/min. The retention time for cephalosporin G was 8.5 minutes and 12.5 minutes for penicillin G with detection at 215 nm, and the product at 8.5 minutes in DAOCS reaction was confirmed by ESI-LC/MS (positive): [M+H]^+=333. […] The different combinations of the mutated amino acids mentioned above were also constructed by site-directed mutagenesis.
(§2) The cell extract (2 ml) of a candidate mutant was applied onto a HiTrap Q column (5 ml) pre-equilibrated with buffer B (50 mM Mops/pH 7.5, 1 mM DTT, 0.4 mM pefabloc SC, and 0.5 μg/ml leupeptin). Then, the column was washed with 20 ml of buffer B, followed by a further wash with 25 ml of buffer B containing 120 mM NaCl, and DAOCS was eluted off with 20 ml of buffer B containing 150 mM NaCl. The DAOCS containing fractions were pooled (10 ml), concentrated by UF 15 device (NMWL 5K; Millipore), and loaded onto a Hiload Superdex 75 (16/60) column pre-equilibrated with buffer B at a flow rate of 1 ml/min.
(§3) The standard penicillin G assay was followed for kinetic assay, but 20 μg of purified DAOCS was used and the concentration of α-ketoglutarate was reduced to 1 mM. Kinetic parameters were obtained from triplicate experiments by Hanes-Woolf Plot. For assays using penicillin N as a main substrate, a total volume of 240 μl reaction containing 50 mM Hepes/pH 7.5, 0.4 mM ascorbate, 0.1 mM FeSO4, 0.1 mM α-ketoglutarate, 0.1 mM penicillin N and 0.5 μg of purified DAOCS was incubated at 30° C. for 10 minutes, then the same volume of 10 mM EDTA/pH 7.5 was added, and the mixture was subjected to ultrafiltration with UF 0.5 device (NMWL 5000, Millipore). The filtrate was analyzed by HPLC using 25 mM potassium phosphate/pH 6.5 as a mobile phase. The retention time of DAOC and penicillin N was 12 minutes and 13.5 minutes, respectively The results of kinetic parameters are shown in Table 1, wherein the definition and calculation of the parameters are described in Lehninger et al. Principles of Biochemistry, 2nd Ed. Worth Publishers, New York (1993) which is incorporated herein for reference.
B1 showed a kcat of 0.0514 ± 0.0008 S^−1.
For B2, the kcat was 0.0453 ± 0.0010 S^−1.
With B3 the kcat was 0.1036 ± 0.0012 S^−1.
With B4 the kcat was 0.0476 ± 0.0012 S^−1.
For B5, the kcat was 0.0456 ± 0.0016 S^−1.
With B6 the kcat was 0.0672 ± 0.0008 S^−1.
B7 gave a kcat of 0.1398 ± 0.0015 S^−1.
Work on B8 yielded a kcat of 0.0759 ± 0.0015 S^−1.
With B9 the kcat was 0.0507 ± 0.0006 S^−1.
Work on B10 yielded a kcat of 0.1458 ± 0.0038 S^−1.
With B11 the kcat was 0.0698 ± 0.0012 S^−1.
Work on B12 yielded a kcat of 0.0798 ± 0.0012 S^−1.
B13 gave a kcat of 0.0453 ± 0.0009 S^−1.
Molecule B14 has a kcat of 0.0522 ± 0.0004 S^−1.

Same assay, conditions: for penicillin G; 20 μg purified DAOCS, 1 mM α-ketoglutarate, 30° C.; triplicate, Hanes-Woolf Plot
Work on B1 yielded a Km of 720 ± 20 µM.
B2 gave a Km of 2580 ± 220 µM.
B3 gave a Km of 1020 ± 20 µM.
For B4, the Km was 1760 ± 50 µM.
B5 gave a Km of 760 ± 170 µM.
In the case of B6, the Km is reported as 2450 ± 40 µM.
Molecule B7 has a Km of 190 ± 2 µM.
For B8, the Km was 660 ± 70 µM.
In the case of B9, the Km is reported as 1960 ± 90 µM.
In the case of B10, the Km is reported as 250 ± 80 µM.
Molecule B11 has a Km of 1390 ± 90 µM.
In the case of B12, the Km is reported as 950 ± 50 µM.
With B13 the Km was 1770 ± 150 µM.
B14 gave a Km of 1360 ± 90 µM.

Experiment: Relative activity of purified combined mutants compared to wild type DAOCS
Type: biochemical
Settings: 1 mM penicillin G; activity of wild-type DAOCS as 100%
Protocol: as §1, §3
The relative activities of the mutants are determined according to Chin H. S. et al supra with the activity of wild-type DAOCS as 100% and shown in Table 2. The assay was performed with 1 mM penicillin G, and the other conditions were the same as standard assay.
With B2 the “Relative Activities” value was 100%.
In the case of B15, the “Relative Activities” value is reported as 300%.
In the case of B16, the “Relative Activities” value is reported as 430%.
With B17 the “Relative Activities” value was 470%.
In the case of B10, the “Relative Activities” value is reported as 500%.
For B18, the “Relative Activities” value was 1290%.
With B19 the “Relative Activities” value was 610%.

Experiment: Kinetic assay of purified DAOCS with penicillin N as main substrate
Type: biochemical
Settings: for penicillin N; 0.5 μg purified DAOCS, 30° C., 10 minutes
Protocol: as §2, §3
In the case of B1, the kcat is reported as 0.220 ± 0.042 S^−1.
Molecule B2 has a kcat of 0.307 ± 0.038 S^−1.
B3 gave a kcat of 0.297 ± 0.020 S^−1.
In the case of B4, the kcat is reported as 0.235 ± 0.008 S^−1.
Work on B5 yielded a kcat of 0.084 ± 0.002 S^−1.
With B6 the kcat was 0.236 ± 0.005 S^−1.
Work on B7 yielded a kcat of 0.048 ± 0.001 S^−1.
Work on B8 yielded a kcat of 0.284 ± 0.030 S^−1.
B9 showed a kcat of 0.277 ± 0.004 S^−1.
B10 showed a kcat of 0.316 ± 0.032 S^−1.
For B11, the kcat was 0.260 ± 0.006 S^−1.
B12 gave a kcat of 0.048 ± 0.005 S^−1.
B13 gave a kcat of 0.277 ± 0.014 S^−1.
In the case of B14, the kcat is reported as 0.247 ± 0.006 S^−1.

Same assay, conditions: for penicillin N; 0.5 μg purified DAOCS, 30° C., 10 minutes; triplicate, Hanes-Woolf Plot
Molecule B1 has a Km of 11 ± 5 µM.
B2 showed a Km of 14 ± 6 µM.
B3 showed a Km of 11 ± 1.5 µM.
With B4 the Km was 16 ± 0.5 µM.
B5 gave a Km of 47 ± 0.5 µM.
For B6, the Km was 8 ± 1 µM.
With B7 the Km was 92 ± 0.5 µM.
In the case of B8, the Km is reported as 6 ± 2 µM.
In the case of B9, the Km is reported as 11 ± 1 µM.
With B10 the Km was 13 ± 5 µM.
With B11 the Km was 9 ± 1.5 µM.
B12 gave a Km of 295 ± 30 µM.
In the case of B13, the Km is reported as 13 ± 2 µM.
In the case of B14, the Km is reported as 9 ± 0.5 µM.

Experiment: DAOCS activity assay with cell extracts
Type: biochemical
Settings: 20 μl cell extract, 7 mM penicillin G, 30° C., 20 minutes
Protocol: BL21(DE3) transformants were grown overnight in 5 ml of LB medium with 50 μg/ml kanamycin at 30° C. This culture was used to inoculate 100 ml of the same medium and grown at 30° C. for 1 hour. Then 0.1 mM IPTG was added to induce DAOCS indirectly at 30° C. for 4 hours. Cells were harvested, washed with buffer A (50 mM Mops/pH 7.5, 1 mM PMSF, 1 mM DTT, and 0.5 μg/ml leupeptin), lysed by sonication (VCX 750; Sonics & Materials, USA), and centrifuged at 15,000×g for 15 minutes. The supernatant was used as a cell extract.
as §1
In the case of B1, the “expandase activity on penicillin G compared to parent strain YS16” value is reported as “higher expandase activities on penicillin G than the parent strain YS16”.
For B8, the “expandase activity on penicillin G compared to parent strain YS16” value was “higher expandase activities on penicillin G than the parent strain YS16”.
